This note sets out measurements from patent publication US20190194319A1 (AbbVie / Abbott, published 2019).

For experiment [1], the target named is T1, human ASCL1 (Achaete-scute homolog 1) (human, UniProt P50553 1-236).
T1 construct: also called hASCL1; immobilized human ASCL1
T1 sequence: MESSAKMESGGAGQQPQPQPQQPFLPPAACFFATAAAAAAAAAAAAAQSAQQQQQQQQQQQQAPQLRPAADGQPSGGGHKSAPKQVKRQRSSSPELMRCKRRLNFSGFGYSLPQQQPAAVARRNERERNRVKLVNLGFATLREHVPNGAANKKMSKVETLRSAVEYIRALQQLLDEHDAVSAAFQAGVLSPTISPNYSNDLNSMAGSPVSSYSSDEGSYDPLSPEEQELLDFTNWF
Put plainly: ELISA with purified antibody: staining against hASCL1 divided by staining against an irrelevant protein (form of the coated hASCL1 not stated in paragraph 180; the screen it confirms used hASCL1-GST). The method, then: A second immunization campaign was conducted similar to the first with the following modifications: 1) 299×10⁶ cells) were fused with non-secreting SP2/0-Ag14 myeloma cells (ATCC #CRL-1581) at a ratio of 1:1 by electro cell fusion using a model BTX Hybrimmune System (BTX Harvard Apparatus). On day 6, after the fusion, the hybridoma cells were not frozen and were sorted on that day. After the 10 day culture, 6×384 clones were screened by ELISA selecting for antibodies positive to hASCL1-GST (glutathione S-transferase) and counter screened against an irrelevant protein tagged with GST. As part of this, ALK phosphatase-labeled goat anti-mouse IgG diluted 1:5000 in PBSA was used instead of HRP-labeled goat anti-mouse IgG diluted 1:10:000. ELISA samples were analyzed at OD405 instead of OD450.
To confirm the results of the ELISA soup screen a similar ELISA was run on purified antibodies from selected clones. The ELISA positive ratio, (defined as ELISA staining against hASCL1 divided by the ELISA staining against an irrelevant protein) was then determined and set forth in FIG. 3 in the column labeled “ELISA positive ratio”.
Background: ELISA stands for enzyme-linked immunosorbent assay.

In experiment [2] the target is T2, hASCL1 expressed in HEK-293T cells (pLMEGPA-hASCL1-NFlag) (human, UniProt P50553 1-236).
T2 construct: also called HEK293T cells transiently transduced with hASCL1; ASCL1 engineered cells
T2 sequence: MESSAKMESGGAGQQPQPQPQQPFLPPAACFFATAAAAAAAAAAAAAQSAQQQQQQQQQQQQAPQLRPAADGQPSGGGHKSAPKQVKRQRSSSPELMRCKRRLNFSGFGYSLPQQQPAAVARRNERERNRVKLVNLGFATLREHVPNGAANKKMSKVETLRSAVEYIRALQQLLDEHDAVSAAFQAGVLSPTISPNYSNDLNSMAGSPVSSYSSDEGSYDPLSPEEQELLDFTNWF
Put plainly: intracellular flow cytometry (gMFI) on permeabilised HEK293T cells transduced with hASCL1, control cells transduced with GFP only; antibody 10 ug/ml. The method, then:
1×10⁵ per well of HEK293T cells transiently transduced with hASCL1(as described in Example 1), and HEK293T cells transiently transduced with GFP only were washed with cold PBS and then incubated with a solution of PBS and a Dylight 450 Fixable viability dye for 30 minutes. After incubation, the cells were washed twice with PBS. To permeate the cell walls 100 ul of BD Cytofix/Cytoperm was added to the cells and left to incubate for 20 minutes on ice. Cells were then washed with BD Phosflow perm/wash solution. Purified antibody at a final concentration of 10 ug/ml was then added to the cells in 45 ul of BD Phosflow perm/wash solution, incubated on ice for 30 minutes, and then washed with BD Phosflow perm/wash 2 times. 50 ul of Alexa Fluor 647 conjugated Goat-anti-mouse IgG secondary antibody, was added at 1 ug/ml dissolved in BD Phosflow perm/wash and incubated on ice for 30 minutes, then washed with BD Phosflow perm/wash 3 times. The cells were then resuspended in FACS buffer to be read on BD FACS Canto according to the manufacturer's instructions.
The FlowJo software package (FlowJo LLC) was used to calculate gMFI (geometric Mean Fluorescence Intensity) for each of the anti-ASCL1 antibodies.

Experiment [3] has as its target T1, human ASCL1 (Achaete-scute homolog 1). Put plainly: screening of Example 2 (ELISA) or cells.

B1: SC72.201 (antibody, V domains shown)
VH: EVNLEESGGGLVQPGGSMKLSCVASGFTFSNYWMNWVRQSPEKGLEWVAQIRSKSDNYATHYAESVKGRFTISRDDSKSSVYLQMNNLRSEDTGIYYCRTGPDVWGTGTTVTVSS
VL: DIQMTQSPASLSVSVGETVTITCRASENIYSSLAWYQQKQGNSPQLLVYAATKLADGVPSRFSGSGSGTQYSLKINSLQSEDFGSYYCQHFWGTTWTFGGGTKLEIK
notes: Murine monoclonal antibody from a hybridoma of the second immunization campaign; light chain amplified with kappa primers
For B1, the ELISA positive ratio in experiment [1] is 11.7. Moreover, the IC ratio in experiment [2] was found to be 0.67.

B2: SC72.132 (antibody, V domains shown)
VH: EVKLVESEGGLVQPGSSMKLSCTASGFTFSDYYMAWVRQVPEKGLEWVATIDYDGSNTYYLDSLKSRFIISRDNAKNILYLQMSSLKSEDTATYYCARDGGYDEDYFDYWGQGTTLTVSS
VL: DIVMSQSPSSLAVSVGEKVTLSCKSSQTLLYSSNQQNYLAWYQQKPGQSPKLLIYWASTRESGVPDRFTGSGSGTDFTLTISSVKAEDLAVYYCHQYYTYPFTFGSGTKLEIK
notes: Murine monoclonal antibody from a hybridoma; light chain amplified with kappa primers
B2: the binding result in experiment [3] is recorded as “binds”.

B3: SC72.63 (antibody, V domains shown)
VH: EVQLLQSGPELVKPGASVKMSCKASGYTLTDYNLHWVKQSHAKSLEWIGYINPYNGVTSYNQRFKGKATLTVNKSSSTAFMEFRSLTSEDSAVYYCVSLYYGDDPFACWGQGTLVTVST
VL: DIQMTQSPASLSASVGETVTMTCRASENIYSNLAWYQQKQGKSPQLLVYAATNLADDVPSRFSGSGSGTQFSLKINSLQPEDFGIYYCHHFYGSPLTFGAGTKLELK
notes: as for B2
For the molecule B3, in experiment [3], the binding result is listed as “binds”.

B4: SC72.52 (antibody, V domains shown)
VH: QVQLQQPGSVLVRPGASVKLSCKASGYTFTSYWMHWVKQRPGQGLEWIGEIYPNSGRTNYNEKFKGKATLTVDTSSSTAYVDLSSLTSEDSAVYYCHYYDDNYGYWGQGTTLTVSS
VL: DIVITQDELSNPVTSGESVSISCRSSKSLLYKDGKTYLNWFLQRPGQSPQLLIYLMSTRASGVSDRFSGSGSGTDFTLEISRVKAEDVGVYYCQQFVEYPLTFGAGTKLELK
notes: as for B2
In the case of B4, in experiment [3], the binding result is given as “binds”.

B5: SC72.76 (antibody, V domains shown)
VH: QVQLKESGPGLVAPSQSLSITCTVSDFSLTNYAVHWVRQSPGKGLEWLGVIWSDGNTDYNAPFISRLSISKDNSKSQVFFKMNSLQADDTAIYYCASYGDSAYWGQGTLVTVSA
VL: DIVLTQSPASLTVSLGQRATISCRASQSVRTSNYSYMHWYQQKPGQPPKLLIKYASNLESGVPARFSGSGSGTDFTLNIHPVEEEDTATYYCQHHWEIPFTFGGGTKLEIK
notes: as for B2
Take B5: the binding result in experiment [3] is on record as “binds”.

B6: SC72.91 (antibody, V domains shown)
VH: QVQLQQSGPEVVKPGASVKLSCKASGYTFTTYDINWVKQRPGQGLEWIGWIYFRDGTNKYNEKFKGKATLTVDTSSSTAYMELHSLTSEDSAVYFCASVYDGYYVSGFDIMDYWGQGTSVTVSS
VL: DVVLTQTPLSLPVSLGDQASIYCRSSQSIVHSNGNTYFEWYLQKPGQSPKLLIYKVSNRLSGVPDRFSGSGSGTDFTLKISRVEAVDLGIYYCFQASHVPFTFGAGTKLELK
notes: as for B2
Regarding B6, the binding result in experiment [3] is on record as “binds”.

B7: SC72.28 (antibody, V domains shown)
VH: DVQLQQSGAELVRPGALVKLSCKASGFNIKDYLIHWVKQRPEQGLEWIGCIDPENGNTIYDPRFQGKAKITSDTSSTTAYLRLTSLTSEDTAVYYCGRGGLDYWGQGTTLTVSS
VL: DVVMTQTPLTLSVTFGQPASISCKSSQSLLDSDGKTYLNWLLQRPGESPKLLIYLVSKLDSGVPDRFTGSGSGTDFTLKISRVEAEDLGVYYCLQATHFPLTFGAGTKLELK
notes: as for B2
Regarding B7, in experiment [3], the binding result is given as “binds”.

B8: SC72.94 (antibody, V domains shown)
VH: QVQLQQPGTELVKPGASVKLSCKASAYTFTSLWIHWVKQRPGQGLEWIGDINPSIGDTYYNERFKSKATLTVDKSSSTAYMQLSSLTSEDSAVYYCTTGDSWGQGTTLTVSS
VL: DIQMNQSPSSLSASLGDTITITCRASQGISIWLSWYQQKPGNIPKLLIYKASNLHTGVPPSFSGSGSGTDFTLTISSLQPEDIATYYCLQSQSYPWTFGGGTKLEIK
notes: as for B2
Turning to B8, the binding result in experiment [3] is “binds”.

B9: SC72.93 (antibody, V domains shown)
VH: QVQLQQSGAELVRPGASVTLSCKASGYIFIDYEMHWVKQTPVHGLEWIGSIDPETGDTVYNQKFKGKATLTADKSSSTAYMELRSLTSEDSAVYYCSRGGLDYWGQGTTLTVSS
VL: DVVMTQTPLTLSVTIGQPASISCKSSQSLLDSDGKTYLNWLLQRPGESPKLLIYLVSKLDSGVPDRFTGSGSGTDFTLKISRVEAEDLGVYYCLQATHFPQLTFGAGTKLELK
notes: Murine monoclonal antibody from a hybridoma; same VL as SC72.2; light chain amplified with kappa primers
In the case of B9, the binding result in experiment [3] is listed as “binds”.

B10: SC72.96 (antibody, V domains shown)
VH: EVQLQQSGPELVKPGASVKMSCKASGYTLTAYNIHWVKQSHGKSLEWIGFINPHSGGTTYNEKFKGKATLTVNKSSSTANMELRSLTSEDSAVYYCASIYYYGSSYFDHWGQGTTLTVSS
VL: DIQMTQSPASLSASVGETVTMTCRASENIHSNLVWYQQKQGKSPQLLVYAATNLADGVPSRFSGSGSGSQFSLKIDSLQPEDFGSYLCQHFYGTPRTFGGGTKLEIK
notes: as for B2
As to B10, the binding result in experiment [3] was “binds”.

B11: SC72.216 (antibody, V domains shown)
VH: QIQLVQSGPELRKPGETVKISCKASGYTFTNYPMHWVKQAPGKGFKWMGWINTYSGVPSYADDFKGRFAFSLETSASSAYLQINNLKNEDMATYFCARHNYNSYDVFAYWGQGTLVTVSA
VL: DIVVTQSPASLAVSLGQRATISCKASQSVDYDGDSYMNWYQQKPGQPPKLLIYGASNLESGIPARFSGSGSGTDFTLNIHPVEEEDAATYYCQQSNEDPYTFGGGTKLEIK
notes: as for B1
As to B11, the ELISA positive ratio in experiment [1] turned out to be 13. Further, the IC ratio in experiment [2] was found to be 1.86.

B12: SC72.181 (antibody, V domains shown)
VH: QVQLQQPGAEVVKPGASVRLSCKASGYTFTSYWINWVKQRPGQGLEWIGNIYPGSSSTNYNEKFKSKATLTVDTSSSTAYMQLSSLTSDDSAVYYCSRSESDYWGQGTTLTVSS
VL: DIVLTQSPASLAVSLGQRATISCKASQSVDDDGGTYMSWYQQKPGQPPKLLIYGVFILESGIPARFSGSGSGTDFTLNIHPVEEEDAATYYCQQSNEDPYTFGGGTKLEIK
notes: as for B2
In the case of B12, the binding result in experiment [3] is listed as “binds”.

B13: SC72.165 (antibody, V domains shown)
VH: QVQLQQPGAELVRPGASVRLSCKASGYSFTSYWINWVKQRPGQGLEWIGNIYPGSSNTNYNEKFKRKATLTVDTSSSTAYMQLSSLTSDDSAVYYCARSESDYWGQGTTLTVSS
VL: DIVLTQSPASLAVSPGQRATISCKASQSVGYDGDTYLSWYQQKPGQPPKLLIYGVSILESGIPARFSGSGSGTDFTLNIHPVEEEDAATYYCQQSSEDPYTFGGGTKLEIK
notes: as for B2
For B13, the ELISA positive ratio in experiment [1] worked out at 14.2. In addition, the IC ratio in experiment [2] worked out at 3.69.
